Assay [1] has as its target GHRH receptor of human pituitary membrane homogenates (human) (UniProt Q02643). Description: radioligand competition, 125I-JV-1-42 (~0.2 nM) as competitor, human pituitary membrane homogenates. In general terms: In a radioligand displacement assay an active substance lowers the binding of a labelled ligand.
Assay [2] has as its target T1, GHRH receptor of human pituitary membrane homogenates (human, UniProt Q02643 23-423).
T1 construct: whole, on cells; Native receptor in pituitary membrane homogenates, not intact cells; also called hGH-RH receptor
T1 sequence (looked up): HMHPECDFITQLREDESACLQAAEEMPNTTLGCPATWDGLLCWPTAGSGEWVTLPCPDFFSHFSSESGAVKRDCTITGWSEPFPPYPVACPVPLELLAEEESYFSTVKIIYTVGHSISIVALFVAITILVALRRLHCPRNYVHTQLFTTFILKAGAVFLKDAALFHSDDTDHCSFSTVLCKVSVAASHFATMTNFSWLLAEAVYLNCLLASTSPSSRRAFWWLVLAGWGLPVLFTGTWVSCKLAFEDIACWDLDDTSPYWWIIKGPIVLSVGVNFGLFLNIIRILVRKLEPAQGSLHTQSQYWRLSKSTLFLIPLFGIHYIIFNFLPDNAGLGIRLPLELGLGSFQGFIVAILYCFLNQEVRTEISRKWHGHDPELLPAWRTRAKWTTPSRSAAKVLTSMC
The description is as above. The text has this:
Normal human pituitaries were purchased from the National Hormone and Peptide Program (A. F. Parlow, Los Angeles, County Harbor-UCLA Medical Center, Torrance, Calif.).

Square brackets hold non-standard residues; d marks the D form. Ends that are not written are not given here. * marks the point of attachment. Desaminotyrosyl = O=C(CCc1ccc(O)cc1)*; NMeY = CN[C@@H](Cc1ccc(O)cc1)C(=O)O; Agmatine = N=C(N)NCCCCN*; NMeA = CN[C@@H](C)C(=O)O; Nle = CCCC[C@H](N)C(=O)O; Orn = NCCC[C@H](N)C(=O)O; dAbu = CC[C@@H](N)C(=O)O; Abu = CC[C@H](N)C(=O)O; Aoc = NCCCCCCCC(=O)O; GABA = NCCCC(=O)O

As for “[Dat^1, D-Ala^2, Gln^8, Orn^12, Abu^15, Orn^21, Nle^27, Asp^28]hGH-RH(1-29)NH-CH3 (from UniProt P01286 32-60) (peptide)”, in assay [1], the IC50 turned out to be 0.55 nM and the Relative affinity (Binding potency) vs JI-38 (fold, JI-38 = 1) is 7.91.
The matching figures for “[N-Me-Tyr^1, D-Ala^2, Fpa5^6, Orn^12, Abu^15, Orn^21, Nle^27, Asp^28, Agm^29]hGH-RH(1-29) (from UniProt P01286 32-60) (peptide)”: 3.05 nM and 1.43.
On the same counts, the results for “[N-Me-Tyr^1, D-Ala^2, Gln^8, Orn^12, Abu^15, Orn^21, Nle^27, Asp^28, Apa^30]hGH-RH(1-30)NH2 (from UniProt P01286 32-61) (peptide)” are 0.71 nM and 6.12.
The matching figures for “[N-Me-Tyr^1, D-Ala^2, Gln^8, Orn^12, Abu^15, Orn^21, Nle^27, Asp^28]hGH-RH(1-29)NH-CH3 (from UniProt P01286 32-60) (peptide)”: 0.16 nM and 27.2.
In assay [1], “[N-Me-Tyr^1, D-Ala^2, Orn^12, Abu^15, Orn^21, Nle^27, Asp^28]hGH-RH(1-29)NH-CH3 (from UniProt P01286 32-60) (peptide)” had an IC50 of 1.06 nM and a Relative affinity (Binding potency) vs JI-38 (fold, JI-38 = 1) of 4.1.
The matching figures for “[N-Me-Tyr^1, D-Ala^2, Orn^12, Abu^15, Orn^21, Nle^27, Asp^28, Agm^29]hGH-RH(1-29) (from UniProt P01286 32-60) (peptide)”: 1.7 nM and 2.56.
The matching figures for “[Ac-N-Me-Tyr^1, D-Ala^2, Gln^8, Orn^12, Abu^15, Orn^21, Nle^27, Asp^28, Agm^29]hGH-RH(1-29) (from UniProt P01286 32-60) (peptide)”: 3.44 nM and 1.26.
The matching figures for “[N-Me-Tyr^1, D-Ala^2, Gln^8, Orn^12, Abu^15, Orn^21, Nle^27, Asp^28, Agm^29]hGH-RH(1-29) (from UniProt P01286 32-60) (peptide)”: 0.82 nM and 5.3.
In assay [1], “[N-Me-Tyr^1, D-Ala^2, Orn^12, Abu^15, Orn^21, Nle^27, Asp^28]hGH-RH(1-29)NH-CH2-CH3 (from UniProt P01286 32-60) (peptide)” registered an IC50 of 1.47 nM and a Relative affinity (Binding potency) vs JI-38 (fold, JI-38 = 1) of 2.96.
“[N-Me-Tyr^1, D-Ala^2, Fpa5^6, Orn^12, Abu^15, Orn^21, Nle^27, Asp^28]hGH-RH(1-29)NH-CH3 (from UniProt P01286 32-60) (peptide)”: in assay [1], the 50% inhibitory concentration (IC50) amounted to 0.87 nM and the Relative affinity (Binding potency) vs JI-38 (fold, JI-38 = 1) amounted to 5.
Take “[N-Me-Tyr^1, D-Ala^2, Orn^12, Abu^15, Orn^21, Nle^27, Gab^30]hGH-RH(1-30)NH2 (from UniProt P01286 32-61) (peptide)”: in assay [1], the IC50 was 1.07 nM and the Relative affinity (Binding potency) vs JI-38 (fold, JI-38 = 1) was 4.07.
In assay [1], “[N-Me-Tyr^1, D-Ala^2, Fpa5^6, Orn^12, Abu^15, Orn^21, Nle^27, Gab^30]hGH-RH(1-30)NH-CH3 (from UniProt P01286 32-61) (peptide)” came in with an IC50 of 1.56 nM and a Relative affinity (Binding potency) vs JI-38 (fold, JI-38 = 1) of 2.79.
In assay [1], “[Dat^1, D-Ala^2, Gln^8, Orn^12, Abu^15, Orn^21, Nle^27, Asp^28, D-Arg^29]hGH-RH(1-29)NH-CH3 (from UniProt P01286 32-60) (peptide)” had a concentration for half-maximal inhibition (IC50) of 2.74 nM and a Relative affinity (Binding potency) vs JI-38 (fold, JI-38 = 1) of 1.59.

B1: [N-Me-Tyr^1, D-Ala^2, Orn^12, Abu^15, Orn^21, Nle^27, Asp^28, Amc^30]hGH-RH(1-30)NH2 (peptide)
chain: [NMeY][dA]DAIFTNSYR[Orn]VL[Abu]QLSAR[Orn]LLQDI[Nle]DR[Aoc]-NH2
modifications: N-terminus assumed
SMILES: CCCC[C@H](NC(=O)[C@@H](NC(=O)[C@H](CC(=O)O)NC(=O)[C@H](CCC(N)=O)NC(=O)[C@H](CC(C)C)NC(=O)[C@H](CC(C)C)NC(=O)[C@H](CCCN)NC(=O)[C@H](CCCNC(=N)N)NC(=O)[C@H](C)NC(=O)[C@H](CO)NC(=O)[C@H](CC(C)C)NC(=O)[C@H](CCC(N)=O)NC(=O)[C@H](CC)NC(=O)[C@H](CC(C)C)NC(=O)[C@@H](NC(=O)[C@H](CCCN)NC(=O)[C@H](CCCNC(=N)N)NC(=O)[C@H](Cc1ccc(O)cc1)NC(=O)[C@H](CO)NC(=O)[C@H](CC(N)=O)NC(=O)[C@@H](NC(=O)[C@H](Cc1ccccc1)NC(=O)[C@@H](NC(=O)[C@H](C)NC(=O)[C@H](CC(=O)O)NC(=O)[C@@H](C)NC(=O)[C@H](Cc1ccc(O)cc1)NC)[C@@H](C)CC)[C@@H](C)O)C(C)C)[C@@H](C)CC)C(=O)N[C@@H](CC(=O)O)C(=O)N[C@@H](CCCNC(=N)N)C(=O)NCCCCCCCC(N)=O
For the molecule B1, in assay [2], the IC50 worked out at 1.87 nM and the “Relative affinity (Binding potency) vs JI-38” value is 2.32 fold, JI-38 = 1.

B2: [Dat^1, D-Abu^2, Orn^12, Abu^15, Orn^21, Nle^27, Gab^30]hGH-RH(1-30)NH2 (peptide)
chain: [Desaminotyrosyl][dAbu]DAIFTNSYR[Orn]VL[Abu]QLSAR[Orn]LLQDI[Nle]SR[GABA]-NH2
SMILES: CCCC[C@H](NC(=O)[C@@H](NC(=O)[C@H](CC(=O)O)NC(=O)[C@H](CCC(N)=O)NC(=O)[C@H](CC(C)C)NC(=O)[C@H](CC(C)C)NC(=O)[C@H](CCCN)NC(=O)[C@H](CCCNC(=N)N)NC(=O)[C@H](C)NC(=O)[C@H](CO)NC(=O)[C@H](CC(C)C)NC(=O)[C@H](CCC(N)=O)NC(=O)[C@H](CC)NC(=O)[C@H](CC(C)C)NC(=O)[C@@H](NC(=O)[C@H](CCCN)NC(=O)[C@H](CCCNC(=N)N)NC(=O)[C@H](Cc1ccc(O)cc1)NC(=O)[C@H](CO)NC(=O)[C@H](CC(N)=O)NC(=O)[C@@H](NC(=O)[C@H](Cc1ccccc1)NC(=O)[C@@H](NC(=O)[C@H](C)NC(=O)[C@H](CC(=O)O)NC(=O)[C@@H](CC)NC(=O)CCc1ccc(O)cc1)[C@@H](C)CC)[C@@H](C)O)C(C)C)[C@@H](C)CC)C(=O)N[C@@H](CO)C(=O)N[C@@H](CCCNC(=N)N)C(=O)NCCCC(N)=O
Consider B2, for which, in assay [2], the concentration for half-maximal inhibition (IC50) came out at 1.44 nM and the “Relative affinity (Binding potency) vs JI-38” value was 3.02 fold, JI-38 = 1.

B3: [N-Me-Tyr^1, Abu^2, Orn^12, Abu^15, Orn^21, Nle^27, Gab^30]hGH-RH(1-30)NH2 (peptide)
peptide: [NMeY][Abu]DAIFTNSYR[Orn]VL[Abu]QLSAR[Orn]LLQDI[Nle]SR[GABA]-NH2
modifications: N-terminus assumed
SMILES: CCCC[C@H](NC(=O)[C@@H](NC(=O)[C@H](CC(=O)O)NC(=O)[C@H](CCC(N)=O)NC(=O)[C@H](CC(C)C)NC(=O)[C@H](CC(C)C)NC(=O)[C@H](CCCN)NC(=O)[C@H](CCCNC(=N)N)NC(=O)[C@H](C)NC(=O)[C@H](CO)NC(=O)[C@H](CC(C)C)NC(=O)[C@H](CCC(N)=O)NC(=O)[C@H](CC)NC(=O)[C@H](CC(C)C)NC(=O)[C@@H](NC(=O)[C@H](CCCN)NC(=O)[C@H](CCCNC(=N)N)NC(=O)[C@H](Cc1ccc(O)cc1)NC(=O)[C@H](CO)NC(=O)[C@H](CC(N)=O)NC(=O)[C@@H](NC(=O)[C@H](Cc1ccccc1)NC(=O)[C@@H](NC(=O)[C@H](C)NC(=O)[C@H](CC(=O)O)NC(=O)[C@H](CC)NC(=O)[C@H](Cc1ccc(O)cc1)NC)[C@@H](C)CC)[C@@H](C)O)C(C)C)[C@@H](C)CC)C(=O)N[C@@H](CO)C(=O)N[C@@H](CCCNC(=N)N)C(=O)NCCCC(N)=O
notes: also called Peptide 25503
Regarding B3, in assay [2], the IC50 came out at 1.18 nM and the “Relative affinity (Binding potency) vs JI-38” value was 3.67 fold, JI-38 = 1.

B4: [Dat^1, D-Ala^2, N-Me-Ala^8, Orn^12, Abu^15, Orn^21, Nle^27, Asp^28, Agm^29]hGH-RH(1-29) (peptide)
chain: [Desaminotyrosyl][dA]DAIFT[NMeA]SYR[Orn]VL[Abu]QLSAR[Orn]LLQDI[Nle]D[Agmatine]
SMILES: CCCC[C@H](NC(=O)[C@@H](NC(=O)[C@H](CC(=O)O)NC(=O)[C@H](CCC(N)=O)NC(=O)[C@H](CC(C)C)NC(=O)[C@H](CC(C)C)NC(=O)[C@H](CCCN)NC(=O)[C@H](CCCNC(=N)N)NC(=O)[C@H](C)NC(=O)[C@H](CO)NC(=O)[C@H](CC(C)C)NC(=O)[C@H](CCC(N)=O)NC(=O)[C@H](CC)NC(=O)[C@H](CC(C)C)NC(=O)[C@@H](NC(=O)[C@H](CCCN)NC(=O)[C@H](CCCNC(=N)N)NC(=O)[C@H](Cc1ccc(O)cc1)NC(=O)[C@H](CO)NC(=O)[C@H](C)N(C)C(=O)[C@@H](NC(=O)[C@H](Cc1ccccc1)NC(=O)[C@@H](NC(=O)[C@H](C)NC(=O)[C@H](CC(=O)O)NC(=O)[C@@H](C)NC(=O)CCc1ccc(O)cc1)[C@@H](C)CC)[C@@H](C)O)C(C)C)[C@@H](C)CC)C(=O)N[C@@H](CC(=O)O)C(=O)NCCCCNC(=N)N
On to B4, for which, in assay [2], the IC50 is 0.86 nM and the “Relative affinity (Binding potency) vs JI-38” value was 5.06 fold, JI-38 = 1.

A word on the IC50: it is the concentration needed to halve the response being measured. A lower IC50 goes with higher potency.

Source of the values: patent US20140058068A1 (UNIVERSITY OF MIAMI, published 2014).
